Several values for one entry are separate records, joined by “and”; a condition that tells them apart may be missing. Identical values can stand only once.
Test: UV-visible spectroscopy of oxidized or kynurenine-modified amino acids, peptides, proteins and polymers
Assay type: physicochemical
Protocol: A prototype of oxidized amino acid-bearing peptides from enzymatic hydrolysate of pea protein was made. […] More particularly, peptides derived from enzymatic hydrolysis of pea protein (Sigma, 16974) were oxidized in 50 mM sodium phosphate buffer at room temperature using ozone bubbled through the solution (A2Z Ozone Inc., MP1000).
A prototype of kynurenine-bearing polymers was produced from enzymatic hydrolysis of soy protein generating starting peptide material. The soluble peptides were then oxidized in a semi-sealed container into which ozone was pumped.
This was done with bovine serum albumin buffer exchanged with into 50 mM sodium phosphate pH 6.5 to remove small molecule impurities.
The polymeric lysine (8.8 mg) was suspended in 200 microliters of 50 mM sodium bicarbonate pH 9.5 and treated with DL-kynurenine (Sigma 61250) (~1 mM) for 44 hours at 37° C. in the dark. […] Controls of poly-lysine with no added kynurenine and that of kynurenine without poly-lysine were run concurrently. […] Soy peptides were used similarly, though they also contain other potential nucleophilic residues besides lysine to which kynurenine monomers could be added, including cysteine and histidine. These soy peptides were generated from overnight incubation at 37° C. of soy protein powder (5 g/100 mL deionized water) using porcine pepsin (0.5 mg/mL) all brought to pH 2.0 using hydrochloric acid. After this incubation, insoluble material was removed via centrifugation, and the clarified solution was brought to pH 9.5 using sodium hydroxide. This soy peptide solution was added in two parts to one part 50 mM sodium bicarbonate pH 9.5. To 1 mL of soy peptide solution was added 0.2 mL DLkynurenine (final 1 mM), and this was incubated for 44 hours at 37° C. in the dark. To isolate peptides from free kynurenine to determine if kynurenine monomers were added by UV-visible spectroscopy, small molecules and even some small peptides were removed with size exclusion (Sephadex G-50, GE Healthcare).

[1] = after treatment with ozone, UV-visible spectroscopy
[2] = after incubation with DL-kynurenine (44 hours, 37° C., pH 9.5) and size exclusion

Row | Compound | region of increased absorbance [1] | region of increased absorbance [2] | wavelength of absorbance increase in the UVA [2]
1 | N[C@@H](Cc1c[nH]c2ccccc12)C(=O)O [L-tryptophan] | 300 to 400 nm and 300-400 nm | – | –
2 | NC(CC(=O)c1ccccc1NC=O)C(=O)O (centres unmarked) [N-formyl kynurenine] | 300-350 nm | – | –
3 | bovine serum albumin: bovine serum albumin stirred under a stream of ozone for 8 hours | 300-350 nm | – | –
4 | poly-L-lysine | – | 300-400 nm | around 360 nm
